B1: C9orf25 (parent)
chain: LARKGSLKNGSMGSPVNQQPKKNN

Variants of: B1
Test: protein stability index of a GFP-peptide fusion (GPS, HEK-293T) (PSI 1-6); higher = more stable
Conditions: c terminus: a fixed tail appended
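Also: lentivirally expressed fusions sorted by FACS into six bins by GFP to DsRed ratio, PSI derived from sequencing read proportions per bin multiplied by bin number.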

Variant | protein stability index
LARYGSLKNGSMGSPVNQQPKKNN | 4.13
LARKASLKNGSMGSPVNQQPKKNN | 4.5
LARKCSLKNGSMGSPVNQQPKKNN | 4.29
LARKDSLKNGSMGSPVNQQPKKNN | 4.58
LARKESLKNGSMGSPVNQQPKKNN | 4.82
LARKFSLKNGSMGSPVNQQPKKNN | 4
LARKHSLKNGSMGSPVNQQPKKNN | 4.49
LARKISLKNGSMGSPVNQQPKKNN | 3.99
LARKKSLKNGSMGSPVNQQPKKNN | 5.05
LARKLSLKNGSMGSPVNQQPKKNN | 3.55
LARKMSLKNGSMGSPVNQQPKKNN | 4.06
LARKNSLKNGSMGSPVNQQPKKNN | 4.07
LARKPSLKNGSMGSPVNQQPKKNN | 4.48
LARKQSLKNGSMGSPVNQQPKKNN | 4.6
LARKRSLKNGSMGSPVNQQPKKNN | 4.34
LARKSSLKNGSMGSPVNQQPKKNN | 4.8
LARKTSLKNGSMGSPVNQQPKKNN | 4.53
LARKVSLKNGSMGSPVNQQPKKNN | 4.26
LARKWSLKNGSMGSPVNQQPKKNN | 4.06
LARKYSLKNGSMGSPVNQQPKKNN | 3.27
LARKGALKNGSMGSPVNQQPKKNN | 4.33
LARKGCLKNGSMGSPVNQQPKKNN | 4.05
LARKGDLKNGSMGSPVNQQPKKNN | 5.1
LARKGELKNGSMGSPVNQQPKKNN | 5.15

Variant | protein stability index
LARKGFLKNGSMGSPVNQQPKKNN | 4.36
LARKGGLKNGSMGSPVNQQPKKNN | 4.64
LARKGHLKNGSMGSPVNQQPKKNN | 4.43
LARKGILKNGSMGSPVNQQPKKNN | 4.72
LARKGKLKNGSMGSPVNQQPKKNN | 4.37
LARKGLLKNGSMGSPVNQQPKKNN | 4.12
LARKGMLKNGSMGSPVNQQPKKNN | 4.38
LARKGNLKNGSMGSPVNQQPKKNN | 4.69
LARKGPLKNGSMGSPVNQQPKKNN | 4.59
LARKGQLKNGSMGSPVNQQPKKNN | 4.76
LARKGRLKNGSMGSPVNQQPKKNN | 3.99
LARKGTLKNGSMGSPVNQQPKKNN | 4.76
LARKGVLKNGSMGSPVNQQPKKNN | 4.29
LARKGWLKNGSMGSPVNQQPKKNN | 4.23
LARKGYLKNGSMGSPVNQQPKKNN | 4.89
LARKGSAKNGSMGSPVNQQPKKNN | 4.51
LARKGSCKNGSMGSPVNQQPKKNN | 5.02
LARKGSDKNGSMGSPVNQQPKKNN | 4.01
LARKGSEKNGSMGSPVNQQPKKNN | 3.63
LARKGSFKNGSMGSPVNQQPKKNN | 4.2
LARKGSGKNGSMGSPVNQQPKKNN | 4.57
LARKGSHKNGSMGSPVNQQPKKNN | 4.76
LARKGSIKNGSMGSPVNQQPKKNN | 4.56
LARKGSKKNGSMGSPVNQQPKKNN | 5.32

Variant | protein stability index
LARKGSMKNGSMGSPVNQQPKKNN | 4.66
LARKGSNKNGSMGSPVNQQPKKNN | 4.55
LARKGSPKNGSMGSPVNQQPKKNN | 4.71
LARKGSQKNGSMGSPVNQQPKKNN | 5.04
LARKGSRKNGSMGSPVNQQPKKNN | 4.14
LARKGSSKNGSMGSPVNQQPKKNN | 4.83
LARKGSTKNGSMGSPVNQQPKKNN | 4.71
LARKGSVKNGSMGSPVNQQPKKNN | 3.39
LARKGSWKNGSMGSPVNQQPKKNN | 3.97
LARKGSYKNGSMGSPVNQQPKKNN | 4.17
LARKGSLANGSMGSPVNQQPKKNN | 4.55
LARKGSLCNGSMGSPVNQQPKKNN | 4.32
LARKGSLDNGSMGSPVNQQPKKNN | 4.2
LARKGSLENGSMGSPVNQQPKKNN | 4.29
LARKGSLFNGSMGSPVNQQPKKNN | 4.42
LARKGSLGNGSMGSPVNQQPKKNN | 5
LARKGSLHNGSMGSPVNQQPKKNN | 4.7
LARKGSLINGSMGSPVNQQPKKNN | 4.76
LARKGSLLNGSMGSPVNQQPKKNN | 4.12
LARKGSLMNGSMGSPVNQQPKKNN | 4.45
LARKGSLNNGSMGSPVNQQPKKNN | 5.17
LARKGSLPNGSMGSPVNQQPKKNN | 4.71
LARKGSLQNGSMGSPVNQQPKKNN | 4.84
LARKGSLRNGSMGSPVNQQPKKNN | 4.57

Variant | protein stability index
LARKGSLSNGSMGSPVNQQPKKNN | 4.73
LARKGSLTNGSMGSPVNQQPKKNN | 4.53
LARKGSLVNGSMGSPVNQQPKKNN | 4.43
LARKGSLWNGSMGSPVNQQPKKNN | 4.1
LARKGSLYNGSMGSPVNQQPKKNN | 4.11
LARKGSLKAGSMGSPVNQQPKKNN | 4.6
LARKGSLKCGSMGSPVNQQPKKNN | 4.46
LARKGSLKDGSMGSPVNQQPKKNN | 5.27
LARKGSLKEGSMGSPVNQQPKKNN | 5.29
LARKGSLKFGSMGSPVNQQPKKNN | 4.21
LARKGSLKGGSMGSPVNQQPKKNN | 4.74
LARKGSLKHGSMGSPVNQQPKKNN | 4.63
LARKGSLKIGSMGSPVNQQPKKNN | 4.64
LARKGSLKKGSMGSPVNQQPKKNN | 4.17
LARKGSLKLGSMGSPVNQQPKKNN | 3.67
LARKGSLKMGSMGSPVNQQPKKNN | 4.18
LARKGSLKPGSMGSPVNQQPKKNN | 4.36
LARKGSLKQGSMGSPVNQQPKKNN | 4.92
LARKGSLKRGSMGSPVNQQPKKNN | 4.43
LARKGSLKSGSMGSPVNQQPKKNN | 4.94
LARKGSLKTGSMGSPVNQQPKKNN | 4.78
LARKGSLKVGSMGSPVNQQPKKNN | 4.42

Reference: the supplement of paper PMC10567573
